# B1: Hairpin Ribozyme (parent)
# chain: GUCCUCUUUCACGUGCGCGUGAAAGAGAGAAGUGAACCAGAGAAACACACGUUGUGGUAUAUUACCUGGUA
# Variants of: B1
# Assay: self-cleavage, relative activity (ratio to wild type); higher = more cleavage; co-transcriptional
row,Variant,self-cleavage
1,GUCCUCUUUCACGUGCGCGUGAAAGAGAGAAGUGAACCCGAGAAACACACGUGGUGGUAUAUUACCUGGUA [A39C U53G],0.207
2,GUCCUCUUUGACGUGCGCGUGAUAGAGAGAAGUGAACCAGAGAAACACACGUUGUGGUAUAUUACCUGGUA [C10G A23U],0.656
3,GUCCUCUUUCACGUGCGUGUGAAAGAGAGAAGUGAAACAGAGAAACACACGUUGUGGUAUAUUACCUGGUA [C18U C37A],0.329
4,GUCCUCUUUCACGUGCGCGUUAAAGAGAGAAGUGAACCAGAGAAACACACGUUGUGGUAUAUUACCUGGAA [G21U U70A],0.791
5,GUCCUCUUUCACGUGGGCGUGAAAGAGAGAAGUGAACCAGAGAAACACACGUUGUGGUAUAUUAUCUGGUA [C16G C65U],0.167
6,GUCCUCUUUCACGUGCCCGUGUAAGAGAGAAGUGAACCAGAGAAACACACGUUGUGGUAUAUUACCUGGUA [G17C A22U],0.644
7,GUCCUCUUUCACGUUCGCGUGAAAGAGAGAAGUGAACCAGAGAAACACACGUUGUGGUACAUUACCUGGUA [G15U U60C],1.01
8,GUCCUCUUUCACGUGCGCGUGAAAGAGAGAAGUGAACCAGAGAAACACACGUUGUUGAAUAUUACCUGGUA [G56U U58A],0.0912
9,GUCCUCUUUCACGUGCGCGUGAAAGAGAGAAGUGAACCAGAGGAACACACUUUGUGGUAUAUUACCUGGUA [A43G G51U],0.245
10,GUCCACUUUCACGUGCGCCUGAAAGAGAGAAGUGAACCAGAGAAACACACGUUGUGGUAUAUUACCUGGUA [U5A G19C],0.245
11,GCCCUCUUUCACGUGCGCGUGAAAGAGAGAAGUGAACCAGAGAUACACACGUUGUGGUAUAUUACCUGGUA [U2C A44U],0.201
12,GUCCUCUUUCACGUGCUCGUGAAAGAGAGAAGUGAACCAAAGAAACACACGUUGUGGUAUAUUACCUGGUA [G17U G40A],0.342
13,GUCCUCUUUCACGUGCGCGUGAAACAGAGAAGUGAGCCAGAGAAACACACGUUGUGGUAUAUUACCUGGUA [G25C A36G],0.497
14,GUCCUCUUUAACGUGCGCGUGAAAGAGAGAAGUGAACCAGAGAAACAGACGUUGUGGUAUAUUACCUGGUA [C10A C48G],0.157
15,GUACUCUUUCACGUGCGCGUGAAAGAGAGAAGUGAACCAGAGAAACACACGUUCUGGUAUAUUACCUGGUA [C3A G54C],0.206
16,GUCCUCUUUCACGUGCGCGUGAAAGAGAGAAGUGAACCAGAGAAACACACGUUCUGGUAUAUUACCUCGUA [G54C G68C],0.221
17,GCCCUCUUUCACGUGCGCGUGAAAGAGAGAAGUGAACCACAGAAACACACGUUGUGGUAUAUUACCUGGUA [U2C G40C],0.0737
18,GUCCUCUUUCACGUGCGCGUGAAAGAGAGAAUUGAACCAGAGAAACACACGUUGUGGUAUAAUACCUGGUA [G32U U62A],0.052
19,GUCCUCUUUCACCUGCGCGUGAAAGAGAGAAGUGAACCAGAGAAACACACGUUGUGGUAUAUUACCUGUUA [G13C G69U],0.217

row,Variant,self-cleavage
1,GUCCUCUUUCAUGUGCGCGUGAAAGAGAGAAGUGAACCAGAGAACCACACGUUGUGGUAUAUUACCUGGUA [C12U A45C],0.201
2,GUCCUCUUUCACGUGCGCGUGAAAGAGAGAAAUUAACCAGAGAAACACACGUUGUGGUAUAUUACCUGGUA [G32A G34U],0.798
3,GUCCUCUUUCACGUGCGCGUGAACGAGAGAACUGAACCAGAGAAACACACGUUGUGGUAUAUUACCUGGUA [A24C G32C],0.131
4,GUCCUCUUUCACGUGCGCGUGAAAGAGAGAAGUGAACCAGAGAAACACACGUUGUGGUAUAUAACCUGUUA [U63A G69U],0.17
5,GUCAUCUUUCAUGUGCGCGUGAAAGAGAGAAGUGAACCAGAGAAACACACGUUGUGGUAUAUUACCUGGUA [C4A C12U],0.319
6,GUCCUCUUUCACGUGCGCGUGAAAGAGAGAAGUGAACCAGAGAAACACACGUUUUGGUAUAAUACCUGGUA [G54U U62A],0.229
7,GUCUUCUUUCACGUGCGCGUGAAAGAGAGAAGUAAACCAGAGAAACACACGUUGUGGUAUAUUACCUGGUA [C4U G34A],0.688
8,GUCCUCUUUCACGUGCGCGUGAAAGAGAGAAGUGAACCAGAGAAACGCACGUUGUGGUAUAUUACUUGGUA [A47G C66U],0.239
9,GUCCUCUCUCACGUGCGCGUGAAAGACAGAAGUGAACCAGAGAAACACACGUUGUGGUAUAUUACCUGGUA [U8C G27C],0.152
10,GUCCUCUUUCACGUGCGCGUGAAAGAGUGAAGUGAACCAGAGAAACACACGUUGUGGUAUAUUACCUGGUC [A28U A71C],1.1
11,GUCCUCUUUCACGUGCGCGUGAAAGAGAUAAGUGAACCAGAGAAACACACGUUGUGGUAUAUUAACUGGUA [G29U C65A],0.139
12,GUCGUCUAUCACGUGCGCGUGAAAGAGAGAAGUGAACCAGAGAAACACACGUUGUGGUAUAUUACCUGGUA [C4G U8A],0.0905
13,GUUCUCUUUCACCUGCGCGUGAAAGAGAGAAGUGAACCAGAGAAACACACGUUGUGGUAUAUUACCUGGUA [C3U G13C],0.324
14,GUCCUCUUUCACGUGCGCGUGAAAGACAGAAGUGAACCAGAGAAACACACGUUGUGGUAUAUCACCUGGUA [G27C U63C],0.222
15,GUCCUAUUUCACGUGCGCGUGAAAGAGAGAAGUGAACCAGAGUAACACACGUUGUGGUAUAUUACCUGGUA [C6A A43U],0.131
16,GUCGUCUUUCACGUGCGCGUGAAAGAGGGAAGUGAACCAGAGAAACACACGUUGUGGUAUAUUACCUGGUA [C4G A28G],0.443
17,AUCCUCUUUCACGUGCGCGUGAAAGAGAGAAGUGAACCAGAGAAACACACGUUGUGGUAUGUUACCUGGUA [G1A A61G],0.132
18,GUCCUCUUUCACGUGGGCGUGAAAGAGAGAAUUGAACCAGAGAAACACACGUUGUGGUAUAUUACCUGGUA [C16G G32U],0.18
19,UUCCUCUUUGACGUGCGCGUGAAAGAGAGAAGUGAACCAGAGAAACACACGUUGUGGUAUAUUACCUGGUA [G1U C10G],0.231
